Measured values reported in IntAct's records for PubMed 21422170.

B1: Natural cytotoxicity triggering receptor 3 (Homo sapiens), O14931 (parent)
chain: MAWMLLLILIMVHPGSCALWVSQPPEIRTLEGSSAFLPCSFNASQGRLAIGSVTWFRDEVVPGKEVRNGTPEFRGRLAPLASSRFLHDHQAELHIRDVRGHDASIYVCRVEVLGLGVGTGNGTRLVVEKEHPQLGAGTVLLLRAGFYAVSFLSVAVGSTVYYQGKCLTWKGPRRQLPAVVPAPLPPPCGSSAHLLPPVPGG
partner: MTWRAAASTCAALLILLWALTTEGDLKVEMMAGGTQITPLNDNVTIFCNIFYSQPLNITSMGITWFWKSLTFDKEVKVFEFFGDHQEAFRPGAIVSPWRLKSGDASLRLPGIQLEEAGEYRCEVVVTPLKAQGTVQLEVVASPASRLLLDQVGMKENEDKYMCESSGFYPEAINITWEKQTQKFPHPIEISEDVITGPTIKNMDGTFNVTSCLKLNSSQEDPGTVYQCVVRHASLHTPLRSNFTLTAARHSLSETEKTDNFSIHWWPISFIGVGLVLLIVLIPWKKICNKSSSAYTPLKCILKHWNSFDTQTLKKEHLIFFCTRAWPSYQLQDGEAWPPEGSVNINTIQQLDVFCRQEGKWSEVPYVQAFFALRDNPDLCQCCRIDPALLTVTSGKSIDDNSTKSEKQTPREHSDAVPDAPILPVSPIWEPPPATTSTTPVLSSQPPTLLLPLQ

Variants of: B1
Conditions: with nr3l1_human NCR3LG1, Q68D85

Variant | effect of a mutation on the interaction
I50A;S52A | decreasing interaction strength
F85A;L86A | decreasing interaction strength
S52R | disrupting interaction strength
